We go through six substances from US20200237885A1, “VACCINES FOR TREATMENT AND PREVENTION OF CANCER” (Agenus Inc., priority 2015, published 2020).

Where no end group is shown, it is not given here. [ ]: non-standard residue; d: D form. pS = N[C@@H](COP(=O)(O)O)C(=O)O

Assay [1] deals with T1, recombinant human Hsc70 (Homo sapiens, UniProt P11142).
T1 construct: purchased Biomay AG
In words: Hsc70-peptide complex formation by size exclusion chromatography (SEC). It is filed as binding. As to conditions: for Percentage of Hsc70 loaded with peptide: peptide:Hsc70 4:1 molar excess, PBS 37° C. 1 hour. From the text: Hsc70-peptide complex formation was examined in vitro using size exclusion chromatography (SEC). Hsc70 resolves in two main peaks on a size exclusion column, with one peak corresponding to its monomeric form and the other peak to an oligomeric form (FIG. 14). Hsc70 undergoes a conformational change upon binding peptide (Zhuravleva and Gierasch, P.N.A.S. 112[22]:E2865-73 [2015]), resulting in the appearance of a new peak on the SEC chromatogram that corresponds to the peptide-bound form (FIG. 15). By measuring the surface area of each of the peaks corresponding to the forms of Hsc70 on a chromatogram, the percentage of Hsc70 complexed with a peptide can be determined. The effect of the molar ratio of Hsc70 to peptide on Hsc70-peptide complex formation was determined by combining Hsc70 and a test peptide at Hsc70/peptide molar ratios of 1:4, 1:10, 1:20, and 1:50, and then resolving the resulting mixtures by SEC to determine the extent of complex formation. The peptide used in these experiments was the immunogenic peptide B16-M27 (“M27”), containing a B16-F10 melanoma-specific mutation, as described in Kreiter et al., Nature 520(7549):692-6 (2015) (also described in Examples 9-11). The effect on complex formation of appending a high affinity Hsc70-binding peptide sequence to a chicken ovalbumin peptide having the amino acid sequence SIINFEKL (SEQ ID NO:448), that is highly immunogenic in mice (Zehn et al, Nature 458:211-214 [12 Mar., 2009]) was also tested. The high affinity Hsc70 binding sequence, NLLRLTG (SEQ ID NO:439) was appended to either the C- or N-terminus of the ovalbumin peptide, and was linked to the ovalbumin peptide by a linker having the sequence FFRK (SEQ ID NO:447), as disclosed in U.S. Pat. No. 7,309,491.
Standard size exclusion chromatography was carried out using 7 μM of recombinant human Hsc70 (Genbank Accession No. P11142.1) (Biomay AG) in a reaction buffer containing 20 mM HEPES and 200 mM KCL in a final volume of 50 μl. Reactions were incubated at 37° C. for 1 or 2 hours and centrifuged 2 min at 13000 RPM. Reaction products (10 μg) were resolved on a TSKgel SuperSW3000, 4 μm particle size, 25 nm pore size gel filtration chromatography column (Tosoh Bioscience). For reactions containing peptide, peptide was included in the reaction mixtures at Hsc70:peptide molar ratios of 1:4, 1:10, 1:20, and 1:50. The percentage of Hsc70 complexed with peptide in each reaction mixture was calculated by measuring the surface area of the appropriate peak.
The peptides listed above were individually incubated with Hsc70 in PBS at 37° C. for 1 hour to form non-covalent Hsc70-peptide complexes. For M27 and M30, the peptides were added to Hsc70 at a 20:1 molar excess (peptide:Hsc70) while for M27-Jav and M30-Jav, the peptides were added at a 4:1 molar excess. After incubation, the mixtures were diluted 10 times in PBS at 4° C. and concentrated using a 30 kDa MW cut off Millipore® Amicon® centrifugal filter to separate Hsc70-peptide complexes from free, uncomplexed peptide. The retained complexes 5 Hsc70-M27 and Hsc70-M30 were pooled and subsequently analyzed by size exclusion chromatography (SEC) to quantify the proportion of Hsc70 molecules loaded with peptide. […] The same pooling, filtration and SEC analysis steps were followed for the Hsc70-M27-Jay and Hsc70-M30-Jav complexes with the observation that 73% of the Hsc70 molecules were loaded with the peptides.
Four peptides (Table 9) containing a phosphorylated serine residue were synthesized to 95% purity (GenScript, Cambridge, Mass.). The peptides comprise HLA-A*02:01 binding epitopes of the CDC25 or IRS-2 antigen modified at either their C-termini or N-termini with the addition of a linker sequence FFRK (SEQ ID NO:447) and a high affinity HSP binding peptide sequence NLLRLTG (SEQ ID NO: 439). These peptides were individually incubated with Hsc70 in PBS at 37° C. for 1 hour at a 4:1 molar excess (peptide:Hsc70) to form non-covalent Hsc70-peptide complexes. […]
On the technique in general: SEC sorts molecules by how far they enter the pores of the column.

The target in assay [2] is T1, recombinant human Hsc70. The assay is described as above. It is filed as binding.
[3] abbreviates: Hsc70:peptide molar ratio 1:10, 37° C.

T1 sequence (P11142 whole entry): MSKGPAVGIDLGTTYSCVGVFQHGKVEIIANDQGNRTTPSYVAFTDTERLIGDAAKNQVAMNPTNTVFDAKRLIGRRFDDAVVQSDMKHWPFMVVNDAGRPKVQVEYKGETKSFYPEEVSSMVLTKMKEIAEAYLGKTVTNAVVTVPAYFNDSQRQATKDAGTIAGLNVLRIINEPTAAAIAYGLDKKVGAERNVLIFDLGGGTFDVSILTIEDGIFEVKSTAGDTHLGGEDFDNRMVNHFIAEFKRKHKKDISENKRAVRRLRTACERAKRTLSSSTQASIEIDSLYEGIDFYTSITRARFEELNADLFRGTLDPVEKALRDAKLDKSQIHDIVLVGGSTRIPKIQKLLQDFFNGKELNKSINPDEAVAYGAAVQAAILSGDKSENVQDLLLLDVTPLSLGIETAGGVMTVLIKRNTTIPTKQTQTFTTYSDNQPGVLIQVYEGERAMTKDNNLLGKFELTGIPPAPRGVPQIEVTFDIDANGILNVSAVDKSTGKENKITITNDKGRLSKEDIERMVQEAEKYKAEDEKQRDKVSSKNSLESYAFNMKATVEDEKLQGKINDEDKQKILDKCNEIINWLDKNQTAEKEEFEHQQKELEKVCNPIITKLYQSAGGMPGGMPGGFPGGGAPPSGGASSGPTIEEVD

Take “NLLRLTGFFRKGLLG{pSer}PVRA (NLLRLTGFFRKGLLG[pS]PVRA) [SEQ ID NO 473]”: the “Percentage of Hsc70 loaded with peptide” value in the assay with recombinant human Hsc70 [1] was 41%. Regarding “NLLRLTGFFRKRVA{pSer}PTSGV (NLLRLTGFFRKRVA[pS]PTSGV) [SEQ ID NO 475]”, the “Percentage of Hsc70 loaded with peptide” value in the assay with recombinant human Hsc70 [1] is 34%.

Consider REGVELCPGNKYEMRRHGTTHSLVIHD (M27), for which, in the assay with recombinant human Hsc70 [2] (incubation time increased from 2 to 3 hours at 37° C.), the “change in extent of complex formation with incubation time” value was “only a minor increase”. In addition, in the assay with recombinant human Hsc70 [1] (Hsc70:peptide molar ratio 1:4, 37° C.), the “percentage of Hsc70 bound to peptide” value was found to be 20%. Further, the “percentage of Hsc70 complexed with peptide” value with recombinant human Hsc70 [1] (setting [3]) is given as “approximately 40%”; in the assay with recombinant human Hsc70 [1] (Hsc70:peptide molar ratio 1:20, 37° C.), “approximately 50%”; with recombinant human Hsc70 [1] (Hsc70:peptide molar ratio 1:50, 37° C.), “approximately 65%”. On to “SIINFEKLFFRKNLLRLTG [SEQ ID NO:449, reference compound]”, for which the “extent of complex formation, NLLRLTG at C-terminus compared to N-terminus” value with recombinant human Hsc70 [2] (Hsc70:peptide molar ratio 1:2, same result at 1:5) is given as “significantly greater”. Moreover, the “percentage of Hsc70 complexed with peptide” value with recombinant human Hsc70 [1] (setting [3]) was “over 90%”. Turning to “RVA{pSer}PTSGVFFRKNLLRLTG (RVA[pS]PTSGVFFRKNLLRLTG) [SEQ ID NO 476]”, the “Percentage of Hsc70 loaded with peptide” value with recombinant human Hsc70 [1] worked out at 75%. As for “GLLG{pSer}PVRAFFRKNLLRLTG (GLLG[pS]PVRAFFRKNLLRLTG) [SEQ ID NO 474]”, the “Percentage of Hsc70 loaded with peptide” value with recombinant human Hsc70 [1] worked out at 74%.
